Laboratory results from patent US20240108738A1, “BICYCLIC PEPTIDE LIGANDS SPECIFIC FOR NK CELLS” (Bicycle Tx Limited, priority 2021, published 2024).

Target: human CD16a F176 variant, biotinylated (human) (UniProt P08637)
Experiment: AlphaScreen competition: 10 nM C-terminally biotinylated CD16a F176, mouse IgG2a-conjugated acceptor beads as competed ligand

Sequence of human CD16a F176 variant, biotinylated (human) (P08637 17-208 limits assumed, change not shown): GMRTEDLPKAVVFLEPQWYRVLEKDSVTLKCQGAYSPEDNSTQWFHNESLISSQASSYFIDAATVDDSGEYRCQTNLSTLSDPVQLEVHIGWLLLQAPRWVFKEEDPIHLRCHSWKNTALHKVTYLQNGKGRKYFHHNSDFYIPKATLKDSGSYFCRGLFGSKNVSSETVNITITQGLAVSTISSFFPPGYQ

- IC50 (read off the curve): 50 nM
Substance: IgG positive control (antibody)
